Source: article PMC2386467

biological target: Rap2.6 (Arabidopsis thaliana) (UniProt Q7G1L2); experiment: EMSA; conditions: EMSA: 2.5 ug protein, 20 ng DNA, 0.5x TBE, 20 min room temperature, 6-7% native PAGE, anti-His blot; affinity assay: 2 ug protein, 100 pmol F5, 0.5x TBE, 10 min
Sequence (Q7G1L2 whole entry): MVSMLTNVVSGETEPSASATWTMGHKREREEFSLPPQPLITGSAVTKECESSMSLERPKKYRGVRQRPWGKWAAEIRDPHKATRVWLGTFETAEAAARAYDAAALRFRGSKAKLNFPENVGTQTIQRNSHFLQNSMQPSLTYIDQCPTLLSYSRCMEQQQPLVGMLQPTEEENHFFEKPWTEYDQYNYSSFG

binding, no binding:
CTCCGGTCACGCGATTCAACTTATATCTTCTCTCAGAACTGTCAACACTTGAAAGGAGAAGATCGAGAGAATTAATGAGACAACAGAGAAACCACTAAAAATCAAAACTTTGCAAAATAAGTGAAGAAGCCTTTTAAAGTAAACCAAGTGAAGAGAG (double strand) [F5]
TCTCCGTCATCGAACTTTGATCACAAATACAAAAAACAAAACAAAAAGTGTAACTATAGTCAAAGAAATTAGAAAATTTCGTAAAAGATTAATGTAACAATACCCAGAAACTCTGC (double strand) [F3]
AAACCATGGCATGCATAAGAGTCTTGAGCATAATAATGAAACCTGGATTTCCCGGAATAAACAATACATGGAATGTGGGATTCTCAGCTTGAATTTCCATCATCTCCGTCATC (double strand) [F2]
AAACCATGGCATGCATAAGAGTCTTGAGCATAATAATGAAACCTGGATTTCCCGGA (double strand) [F1]
